Test results published in the Immune Epitope Database (IEDB).

Columns and labels:
HLA-B*46:01 [1] = assay: IEDB peptide-MHC binding, purified MHC/competitive/fluorescence; filed as Kd, often an IC50 or EC50 that approximates it; ≥ and ≤ were set here for values at or beyond the usual limits of such assays; details: source organism: Giardia lamblia ATCC 50803
HLA-C*03:03 = assay: IEDB peptide-MHC binding, purified MHC/direct/fluorescence; filed as Kd, often an IC50 or EC50 that approximates it; ≥ and ≤ were set here for values at or beyond the usual limits of such assays
HLA-B*15:17 = assay: as above; details: source organism: Giardia lamblia ATCC 50803
HLA-B*58:01 [2] = assay: as above
HLA-B*57:01 [3] = assay: as above; details: source organism: Giardia lamblia ATCC 50803
HLA-C*12:03 = assay: as above
HLA-A*02:01 [4] = assay: IEDB peptide-MHC binding, purified MHC/competitive/fluorescence; filed as Kd, often an IC50 or EC50 that approximates it; ≥ and ≤ were set here for values at or beyond the usual limits of such assays
HLA-B*39:01 = assay: as above; details: source organism: Yersinia pestis Nepal516
HLA-B*08:01 [5] = assay: as above; details: source organism: Yersinia pestis Nepal516
HLA-B*35:01 = assay: as above; details: source organism: Yersinia pestis Nepal516
HLA-B*53:01 = assay: IEDB peptide-MHC binding, purified MHC/competitive/radioactivity; filed as Kd, often an IC50 or EC50 that approximates it; ≥ and ≤ were set here for values at or beyond the usual limits of such assays; details: source organism: Dengue virus 3 Martinique/1243/1999
HLA-B*58:01 [6] = assay: as above; details: source organism: Dengue virus 3 Martinique/1243/1999
HLA-B*57:01 [7] = assay: as above; details: source organism: Dengue virus 3 Martinique/1243/1999
HLA-A*01:01 [8] = assay: IEDB peptide-MHC binding, purified MHC/competitive/fluorescence; filed as Kd, often an IC50 or EC50 that approximates it; ≥ and ≤ were set here for values at or beyond the usual limits of such assays; details: source organism: Escherichia coli O139:H28 str. E24377A
HLA-C*05:01 = assay: IEDB peptide-MHC binding, purified MHC/direct/fluorescence; filed as Kd, often an IC50 or EC50 that approximates it; ≥ and ≤ were set here for values at or beyond the usual limits of such assays; details: source organism: Vaccinia virus Copenhagen
HLA-B*08:02 = assay: as above; details: source organism: Influenza A virus (A/Taiwan/2/2006(H1N1))
HLA-A*02:01 [9] = assay: as above; details: source organism: Influenza A virus (A/Duck/Shantou/2088/01(H9N2))
HLA-B*07:02 = assay: as above; details: source organism: Influenza A virus (A/Duck/Shantou/2088/01(H9N2))
HLA-A*11:01 = assay: as above; details: source organism: Influenza A virus (A/Duck/Shantou/2088/01(H9N2))
HLA-B*27:05 = assay: as above; details: source organism: Influenza A virus (A/Duck/Shantou/2088/01(H9N2))
HLA-B*46:01 [10] = assay: as above; details: source organism: Influenza A virus (A/Duck/Shantou/2088/01(H9N2))
HLA-A*31:01 = assay: as above; details: source organism: Influenza A virus (A/Duck/Shantou/2088/01(H9N2))
HLA-A*69:01 = assay: as above; details: source organism: Influenza A virus (A/Duck/Shantou/2088/01(H9N2))
HLA-A*24:02 = assay: as above; details: source organism: Influenza A virus (A/Duck/Shantou/2088/01(H9N2))
HLA-A*01:01 [11] = assay: as above; details: source organism: Influenza A virus (A/Duck/Shantou/2088/01(H9N2))
HLA-B*15:01 = assay: as above; details: source organism: Influenza A virus (A/Puerto Rico/8/34/Mount Sinai(H1N1))
HLA-B*08:01 [12] = assay: as above; details: source organism: Influenza A virus (A/Duck/Shantou/2088/01(H9N2))
HLA-A*03:01 = assay: as above; details: source organism: Influenza A virus (A/Duck/Shantou/2088/01(H9N2))
[13] = source organism: Giardia lamblia ATCC 50803
[14] = source organism: Yersinia pestis Nepal516

Work on IASPILFPF yielded a Kd (HLA-B*46:01 [1]) of 92.3 nM, a Kd (HLA-C*03:03; [13]) of 3 nM and a Kd (HLA-B*15:17) of 1.5 nM. For the same sequence, the Kd (HLA-B*58:01 [2]; [13]) was 3 nM, the Kd (HLA-B*57:01 [3]) was 14.8 nM and the Kd (HLA-C*12:03; [13]) was 594 nM.
In the case of MLMAASRAL, the Kd (HLA-A*02:01 [4]; [14]) is reported as 1.1 nM, the Kd (HLA-B*39:01) is reported as 1.2 nM and the Kd (HLA-B*08:01 [5]) is reported as 39.6 nM. It also gave a Kd (HLA-B*35:01) of 47.1 nM, a Kd (HLA-C*03:03; [14]) of 2 nM and a Kd (HLA-C*12:03; [14]) of 361 nM.
Work on MGITAEWLW yielded a Kd (HLA-B*53:01) of 6.6 nM, a Kd (HLA-B*58:01 [6]) of 0.436 nM and a Kd (HLA-B*57:01 [7]) of 8.74 nM.
LSDICSGLQ gave a Kd (HLA-A*01:01 [8]) of at least 20000 nM.
YLDYDTIYV showed a Kd (HLA-A*02:01 [4]; source organism: Vaccinia virus Copenhagen) of 0.4 nM and a Kd (HLA-C*05:01) of at most 1 nM.
Sequence EEMATKADY has a Kd (HLA-B*08:02) of at least 20000 nM, a Kd (HLA-A*02:01 [9]) of at least 20000 nM and a Kd (HLA-B*07:02) of at least 20000 nM. The Kd (HLA-A*11:01) was at least 20000 nM, the Kd (HLA-B*27:05) was at least 20000 nM and the Kd (HLA-B*46:01 [10]) was at least 20000 nM. The Kd (HLA-A*31:01) was at least 20000 nM, the Kd (HLA-A*69:01) was at least 20000 nM and the Kd (HLA-A*24:02) was at least 20000 nM. It also gave a Kd (HLA-A*01:01 [11]) of at least 20000 nM, a Kd (HLA-B*15:01) of 1460 nM and a Kd (HLA-B*58:01 [2]; source organism: Influenza A virus (A/Duck/Shantou/2088/01(H9N2))) of at least 20000 nM. The Kd (HLA-B*08:01 [12]) was at least 20000 nM and the Kd (HLA-A*03:01) was at least 20000 nM.
